# Assay results taken from patent publication US20210371503A1 (UNIVERSITY OF COLOGNE, published 2021).
# Substitutions are numbered along the chain they refer to.
# B1: CnC2t1p1_B10 (antibody, V domains shown)
# VH: QVQLVQSGAEVKKPGSSVKVSCKASGGTFSSYAISWVRQAPGQGLEWMGGIIPIFGTANYAQKFQGRVTITADKSTSTAYMELSSLRSEDTAVYYCARVSGYDSSGYWGDYWGQGTLVTVSS
# VL: EIVLTQSPATLSLSPGERATLSCRASQSVSSYLAWYQQKPGQAPRLLIYDASNRATGIPARFSGSGSGTDFTLTISSLEPEDFAVYYCQQRSNWPPALTFGGGTKVEIK
# B2: CnC2t1p1_B4 (antibody, V domains shown)
# VH: QVQLVQSGAEVKKPGASVKVSCKASGYTFTSYGISWVRQAPGQGLEWMGWISAYNGNTNYAQKLQGRVTMTTDTSTSTAYMELRSLRSDDTAVYYCARDGELLGWFDPWGQGTLVTVSS
# VL: QSALTQPASVSGSPGQSITISCTGTSSDVGSYNLVSWYQQHPGKAPKLMIYEGSKRPSGVSNRFSGSKSGNTASLTISGLQAEDEADYYCCSYAGSSTWVFGGGTKLTVL
# B3: CnC2t1p1_D6 (antibody, V domains shown)
# VH: EVQLVESGGGLVQPGRSLRLSCTASGFTFGDYAMSWFRQAPGKGLEWVGFIRSKAYGGTTEYAASVKGRFTISRDDSKSIAYLQMNSLKTEDTAVYYCTRVRRLWFGSYYYGMDVWGQGTTVTVSS
# VL: not shown
# B4: CnC2t1p1_E8 (antibody, V domains shown)
# VH: QVQLVQSGAEVKNPGASVKVSCKASGYIFTNYYIHWVRQAPGQGLEWVGWIHSLSGGTSYAQKFQGRVTLTRDASIRTAYMELSRLGSDDTALYYCARASVSTITDFDYWGQGTLVAVSS
# VL: B2 VL with S27G, M49V, G53A, S54T, S65F, G66A, S96V, S97R, W99V
# B5: CnC2t1p1_G6 (antibody, V domains shown)
# VH: B4 VH with N13K, S75P, R85G, L93V, S102A
# VL: B2 VL with S27G, V29I, H41Y, M49I, G53A, S65F, G66A, S96V, S97R, W99V
# B6: FnC1t1p2_A5 (antibody, V domains shown)
# VH: QVQLVQSGAEVKKPGASVKVSCKASGYTFTSYDINWVRQATGQGLEWMGWMNPNSGNTGYAQKFQGRVTMTRNTSISTAYMELSSLRSEDTAVYYCARATTDCSSTSCWSLDFWSGYYTGGREKIFDYWGQGTLVTVSS
# VL: not shown
# B7: FnC1t2p1_D4 (antibody, V domains shown)
# VH: QVQLVQSGSELKKPGASVKVSCKASGYTFLRFAMNWLRQAPGQGLEWMGWIDTNTGTPTYAQGFTGRFVFSLDTSVSTAYLQISSLKAEDTAVYYCARSLRGANLVPWGQGTLVTVSS
# VL: DIQMTQSPSSLSASVGDRVTITCQASQDVSNYLNWYQQQPGKAPKLLIYDAFNLETGVPSRFSGSGSGTDFTFTISSLQPEDIATYYCQQYDNLPLTFGGGTKVEIK
# B8: HbnC2t1p2_D9 (antibody, V domains shown)
# VH: QVQLVESGGGVVQPGRSLRLSCAASGFTFSSYGMHWVRQAPGKGLEWVAVIWYDGRNKYYVDSVKGRFTISRDNSKNTLYLQISSLRAEDTAVYYCARAARRPVVTDTMAYYMDVWGKGTTVTVSS
# VL: EIVLTQSPATLSLSPGERATLSCRASLSLSSYLAWYQQKPGQAPRLLIYDASNRATGIPARFSGSGSGTDFTLTISSLEPEDFAVYYCQQRSNWPPTWTFGQGTKAEIKR
# B9: HbnC3t1p1_C6 (antibody, V domains shown)
# VH: QMQLVQSGPEVKKPGTSVKVSCKASGFTFTSSAVQWVRQARGQRLEWIGWIVVGSGNTNYAQKFQERVTITRDMSTSTAYMELSSLRSEDTAVYYCAAPHCSSTICYDGFDIWGQGTMVTVSS
# VL: not shown
# B10: HbnC3t1p1_F4 (antibody, V domains shown)
# VH: QVQLVESGGGVVQPGRSLRLSCAATGFTFRRYGMHWVRQAPGKGLEWVAGILFDGSNKYYVDSVKGRFTISRDSSRNTLYLQLNSLRREDTAVYYCAKGGDYEWELLESWGQGTLVTVSS
# VL: DIQMTQSPSTVSASVGDRVTITCRASQSIDNWLAWYQEKPGKAPKVLIYKASSLESGVPSRFSGRGSGTEFTLTISSLQPGDFATYYCQHYHSFPLTFGGGTKVDIK
# B11: HbnC3t1p1_G4 (antibody, V domains shown)
# VH: EVQLVESGGGLVQPGGSLRLSCAASGFTVSSNYMSWVRQAPGKGLEWVSVIYSGGSTFYADSVKGRFTISRDNSKNTLYLQMNSLRAEDTAVYYCARDFGDFFFDYWGQGTLVTVSS
# VL: EIVLTQSPGTLSLSPGERATLSCRASQSVSSYLAWYQQKPGQAPRLLIYGVSSRATGIPDRFSGSGSGTDFTLTISRLEPEDFAVYYCQQYGSSPRTFGQGTKVEIK
# B12: HbnC3t1p2_B10 (antibody, V domains shown)
# VH: B11 VH with T28I, F99Y, F102Y
# VL: B11 VL with Y49S, V51A, T56A, S76N, V104L
# B13: HbnC4t1p1_D5 (antibody, V domains shown)
# VH: EVQLVESGGGLVQPGRSLRLSCAASGFTFDDYAMHWVRQAPGKGLEWVSGISWNSGSIGYADSVKGRFTISRDNAKNSLYLQMNSLRAEDTGLYYCAKDINYDSGGYHKNYFDYWGQGTLVTVSS
# VL: DIQMTQSPSSLSASVGDRATITCRASQSISSYLNWYQEKPGKAPKLLIYAASSLQSGVPSRFSGSGSGTDFTLTISSLQPEDFATYYCQQSYSNPLTFGGGTKVEIK
# B14: FnC1t2p1_G5 (antibody, V domains shown)
# VH: B7 VH
# VL: B7 VL
# B15: MnC1t3p1_G9 (antibody, V domains shown)
# VH: EVQLLESGGGLVQPGGSLRLSCAASGFTFRNYAMTWVRQAPGKGLEWVSGISDSGDRTYNADSVKGRFSISRDNSKNTLHLQMNSLRAEDTAVYYCALASGSYFGGANYWGQGTLVTVSS
# VL: QAVVTQEPSLTVSPGGTVTLTCGSSTGPVTSDHYPYWFQQKPGQAPTTLIYDTNNKHSWTPARFSGSLLGGKAALTLSGAQPEDEAEYYCLLSYTGARVFGGGTKLTVL
# B16: MnC2t1p1_A3 (antibody, V domains shown)
# VH: EVQLVESGGGLVQPGGSLRLSCAASGFTVSSNYMSWVRQAPGRGLEWVSVIYSGGSTFYADSVKGRFTISRDNSKNTLYLQMNSLRPEDTAVYYCATGARFGESPFDYWGQGTLVTVSS
# VL: DIQMTQSPSSVSASVGDRVTITCRASQGISSWLAWYQQKPGKAPKLLIYAASSLQSGVPSRFSGSGSGTDFTLTISSLQPEDFATYYCQQANSFPGTFGQGTKVEIK
# B17: MnC2t1p1_C5 (antibody, V domains shown)
# VH: B16 VH with R43K, F58Y, P87A
# VL: B16 VL
# B18: MnC2t2p1_C11 (antibody, V domains shown)
# VH: QVQLVQSGAEVKKPGSSVKVSCKASGGTFSRYTIIWVRQAPGQGLEWMGRIIPILDIANYAQKFQGRVTITADKSTSTAYMELSSLRSEDTAVYYCAREGGLDYFGSRNSGWTYTWFDPWGQGTLVTVSS
# VL: DIQMTQSPSSLSASVGDRVTITCRASQNISSYLNWYQQKPGKAPNLLIYAASSLQSGVPPRFSGSGSGTDFTLTISSLQPEDFATYYCQQSYSTLYSFGQGTKLEIK
# B19: MnC4t2p1_B3 (antibody, V domains shown)
# VH: EVQLVESGGHLVQPGRSLRLSCAASGFTFDDYAMHWVRQVPGKGLEWVSGISWNGGILDYADSVKGRFTISRDNAKNSLYLHMRSLRTDDTALYYCAKDLRRQDYYADWYFDLWGRGTLVTVSS
# VL: DIQMIQSPSSVSASVGDRVTITCRASQGISSWLAWYQQKPGKAPKLLIYAASTLLSAVPSRFSGSGSGTDFTLTISSLQPEDFATYYCQQGNSFPFTFGPGTIVDV
# B20: MnC4t2p2_A4 (antibody, V domains shown)
# VH: QVQLVQSGSELKKPGASVKISCKASGYIFINYAMNWVRQAPGQGLEWMGWINTNTGNPTYAQDFTGRFVFSLDTSLSTAYLQISSLEAEDTAVYYCAKIGSRNSLGVWGQGTLVTVSA
# VL: EIVLTQSPGTLSLSPGERATLSCRASHSVDRSYLAWYQQKPGLAPRLLIYGASSRATGIPDRFSGSGSGTDFTLTISRLEPEDFALYYCQHFGTSSVTFGRGTRLEIK
# B21: MnC4t2p1_E6 (antibody, V domains shown)
# VH: B19 VH with D59G, H82Q
# VL: B19 VL with I5T, I103K
# Target: T1, receptor-binding domain (RBD) of the spike (S) protein of SARS-CoV-2 (SARS-CoV-2, UniProt P0DTC2 319-541)
# T1 construct: also called soluble RBD
# Experiment: ELISA, coated RBD
Binder,EC50 [µg/mL],binding result
B1,< 100,–
B2,< 100,–
B3,< 100,–
B4,< 100,–
B5,< 100,–
B6,–,no binding
B7,< 100,–

# Target: S1 (truncated S1 subunit)
# Experiment: ELISA, coated truncated S1 [cont'd]
row,Binder,EC50 [µg/mL]
1,B8,< 1000
2,B9,< 100
3,B10,< 100
4,B11,< 100
5,B12,< 100
6,B13,< 1000
7,B14,< 100

# Target: T1, receptor-binding domain (RBD) of the …
# Experiment: ELISA, coated RBD [cont'd]
row,Binder,EC50 [µg/mL]
1,B15,< 100
2,B16,< 100
3,B17,< 100
4,B18,< 100
5,B19,< 100

# Target: T1, receptor-binding domain (RBD) of the …
# Experiment: not given
row,Binder,Kd [nM]
1,B16,0.7
2,B18,0.02
3,B19,0.09
4,B20,14
5,B7,0.2
6,B14,0.1

# Target: T1, receptor-binding domain (RBD) of the …
# Experiment: ELISA, coated RBD [cont'd]
# Remark: another data set of the same source
row,Binder,EC50 [µg/mL]
1,B8,< 1000
2,B9,< 100
3,B10,< 1000
4,B11,< 100
5,B12,< 100
6,B13,< 1000
7,B14,< 100

# Target: S1 (truncated S1 subunit)
# Experiment: ELISA, coated truncated S1 [cont'd]
# Remark: another data set of the same source
row,Binder,EC50 [µg/mL]
1,B21,< 100
2,B20,< 100

# Target: S1 (truncated S1 subunit)
# Experiment: ELISA, coated truncated S1 [cont'd]
# Remark: another data set of the same source
row,Binder,EC50 [µg/mL]
1,B15,< 100
2,B16,< 100
3,B17,< 100
4,B18,< 100
5,B19,< 100

# Target: T1, receptor-binding domain (RBD) of the …
# Experiment: ELISA, coated RBD [cont'd]
# Remark: another data set of the same source
row,Binder,EC50 [µg/mL]
1,B21,< 100
2,B20,< 100

# Target: S1 (truncated S1 subunit)
# Experiment: ELISA, coated truncated S1
row,Binder,EC50 [µg/mL]
1,B1,< 100
2,B2,< 100
3,B3,< 100
4,B4,< 100
5,B5,< 100
6,B6,> 1000
7,B7,< 100
